Here are results for two molecules from patent publication WO2011014457A1 (dated 2011).

Assay [1] deals with T1, human AxI ECD-His (human, UniProt P30530 26-451).
T1 construct: extracellular domain; also called human AxI ECD-His protein; Hu AxI
Kind of assay: SPR (BIAcore-3000), IgG captured by anti-human IgG, human AxI ECD-His injected. For orientation: In SPR one partner is held on a chip, and binding of the other changes the refractive index at the surface.

The target of assay [2] is T2, human Tyro-3Fc (human, UniProt Q06418 41-428, limits assumed).
T2 sequence (looked up): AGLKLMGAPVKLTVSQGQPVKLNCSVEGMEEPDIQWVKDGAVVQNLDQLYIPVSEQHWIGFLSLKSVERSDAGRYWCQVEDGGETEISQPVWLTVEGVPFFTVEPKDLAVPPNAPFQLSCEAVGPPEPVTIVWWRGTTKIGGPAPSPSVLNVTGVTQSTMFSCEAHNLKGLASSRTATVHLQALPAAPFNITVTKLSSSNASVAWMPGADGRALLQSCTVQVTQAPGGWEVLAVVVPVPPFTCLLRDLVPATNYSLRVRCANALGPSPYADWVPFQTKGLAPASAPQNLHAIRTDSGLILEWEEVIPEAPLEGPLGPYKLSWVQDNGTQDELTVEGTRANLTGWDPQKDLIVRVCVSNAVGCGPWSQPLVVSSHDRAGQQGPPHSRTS
Kind of assay: ELISA, Fc fusion captured on anti-human IgG Fc. On the technique in general: ELISA stands for enzyme-linked immunosorbent assay.

Assay [3] concerns the target T3, human MerFc (human, UniProt Q12866 21-499, limits assumed).
T3 sequence (looked up): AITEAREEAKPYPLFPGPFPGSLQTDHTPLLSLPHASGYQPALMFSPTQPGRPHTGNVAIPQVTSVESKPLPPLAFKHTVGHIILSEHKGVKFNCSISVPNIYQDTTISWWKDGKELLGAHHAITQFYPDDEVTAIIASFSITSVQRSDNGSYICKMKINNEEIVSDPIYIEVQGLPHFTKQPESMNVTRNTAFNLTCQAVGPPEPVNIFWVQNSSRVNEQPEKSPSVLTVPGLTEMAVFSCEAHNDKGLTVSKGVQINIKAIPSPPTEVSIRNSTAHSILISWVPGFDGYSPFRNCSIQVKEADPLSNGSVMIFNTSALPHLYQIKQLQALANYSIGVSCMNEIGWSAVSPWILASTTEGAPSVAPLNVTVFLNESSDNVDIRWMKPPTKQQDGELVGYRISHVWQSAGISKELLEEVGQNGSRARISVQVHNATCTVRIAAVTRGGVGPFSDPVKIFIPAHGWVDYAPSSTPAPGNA
Kind of assay: ELISA, Fc fusion captured on anti-human IgG Fc.

Assay [4] deals with T4, murine AxI ECD-Fc fusion protein (murine, UniProt Q00993 19-445).
T4 construct: extracellular domain; also called murine AxIFc; mouse AxI.Fc
T4 sequence (Q00993 19-445): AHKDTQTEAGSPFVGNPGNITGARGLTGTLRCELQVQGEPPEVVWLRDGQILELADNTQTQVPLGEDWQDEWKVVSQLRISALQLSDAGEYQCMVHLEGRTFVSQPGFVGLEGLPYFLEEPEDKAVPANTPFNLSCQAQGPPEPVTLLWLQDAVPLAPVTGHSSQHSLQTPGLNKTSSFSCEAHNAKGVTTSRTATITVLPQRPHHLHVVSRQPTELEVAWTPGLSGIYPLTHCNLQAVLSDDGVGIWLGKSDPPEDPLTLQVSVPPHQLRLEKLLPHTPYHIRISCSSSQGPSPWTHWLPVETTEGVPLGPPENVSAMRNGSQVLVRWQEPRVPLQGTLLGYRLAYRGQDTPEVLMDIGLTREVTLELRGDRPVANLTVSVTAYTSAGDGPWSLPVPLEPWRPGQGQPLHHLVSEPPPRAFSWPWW
Kind of assay: SPR (BIAcore-3000), murine AxI ECD-Fc captured by anti-human IgG, anti-Axl Fab fragment injected (per methods).

B1: YW327.6S2 (antibody, V domains shown)
VH: EVQLVESGGGLVQPGGSLRLSCAASGFSLSGSWIHWVRQAPGKGLEWVGWINPYRGYAYYADSVKGRFTISADTSKNTAYLQMNSLRAEDTAVYYCAREYSGWGGSSVGYAMDYWGQGTLV
VL: DIQMTQSPSSLSASVGDRVTITCRASQDVSTAVAWYQQKPGKAPKLLIYSASFLYSGVPSRFSGSGSGTDFTLTISSLQPEDFATYYCQQSYTTPPTFGQGTKVEIKR
notes: also called AxI mAb YW327.6S2
For the molecule B1, the dissociation constant (Kd) (in general, the concentration at which binding is half-saturated) in assay [1] is around 1 nM. Besides, the binding result in assay [2] and in assay [3] was “no binding” throughout.

B2: YW327.6S2 Fab fragment (Fab, V domains shown)
VH: B1 VH
VL: B1 VL
notes: also called anti-Axl Fab fragment
For B2, binding in assay [4] was put at a Kd of 0.545 nM.
